Results: doi:10.1101/2024.03.27.586873

Molecular target: 6xHis-tagged Imp1 (ΦKZ gp69) (phage ΦKZ)
Assay: SEC + other: mass photometry

## FLAG-tagged Imp6 (ΦKZ gp67) (natural protein)
  stoichiometry N (gp67 per Imp1): 2
